B1: ADC-126 (antibody, human IgG1, V domains shown)
VH: QVQLQQSGAEVKKPGSSVKVSCKASGYTFTNYYIYWVRQAPGQGLEWIGGINPTSGGSNFNEKFKTRVTITVDESTNTAYMELSSLRSEDTAFYFCARQGLWFDSDGRGFDFWGQGSTVTVSS
VL: DIQMTQSPSSLSASVGDRVTITCRSSQNIVHSNGNTYLDWYQQTPGKAPKLLIYKVSNRFSGVPSRFSGSGSGTDFTFTISSLQPEDIATYYCFQYSHVPWTFGQGTKLQITR
modifications: linker-drug LD-105 (maleimide) coupled to cysteine sulfhydryls after TCEP reduction; average drug loading y=4.96 per antibody; positions not given
B2: ADC-128 (antibody, human IgG1, V domains shown)
VH: B1 VH
VL: B1 VL
modifications: linker-drug LD-13 coupled to cysteine sulfhydryls after TCEP reduction; average drug loading y=7.62 per antibody; positions not given
B3: ADC-129 (antibody, human IgG1, V domains shown)
VH: B1 VH
VL: B1 VL
modifications: linker-drug LD-99 coupled to cysteine sulfhydryls after TCEP reduction; average drug loading y=7.11 per antibody; positions not given

Each binder was assayed against EGFR (human (endogenous on human cancer cell …, UniProt P00533 25-1210)) (assay: cell-based or functional assay).

B1 and B2 are the same in “IC50 of in vitro proliferation inhibition, EGFR-positive MDA-MB-468 cells (CCK8, 6 days)” value: 0.21 nM for the first, 0.21 nM for the second.

For B3, the “IC50 of in vitro proliferation inhibition, EGFR-positive MDA-MB-468 cells (CCK8, 6 days)” value was 0.2 nM.

— US20260001891A1 (KEYMED BIOSCIENCES CHENGDU, published 2026)
